Test in all cases: NMR titration
The target in assay [1] is T1, IRAK1 p163 peptide 157-180 (Homo sapiens, UniProt P51617, phospho-Ser163).
T1 chain: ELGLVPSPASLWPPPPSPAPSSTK

The target in assay [2] is T2, IRAK1 p144 peptide 140-149 (Homo sapiens, UniProt P51617).
T2 chain: STFL[pS]PAFPG

Assay [3] addresses T3, IRAK1 p131 peptide 126-135 (Homo sapiens, UniProt P51617).
T3 chain: EAEAW[pS]PRKL

Assay [4] has as its target T4, IRAK1 p163 peptide 157-180 (Homo sapiens, UniProt P51617).
T4 chain: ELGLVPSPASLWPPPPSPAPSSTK

Square brackets hold non-standard residues; d marks the D form. Ends that are not written are not given here. pS = N[C@@H](COP(=O)(O)O)C(=O)O

B1: Pin1 PPIase domain 46-163 (protein)
chain: KNGQGEPARVRCSHLLVKHSQSRRPSSWRQEKITRTKEEALELINGYIQKIKSGEEDFESLASQFSDCSSAKARGDLGAFSRGQMQKPFEDASFALRTGEMSGPVFTDSGIHIILRTE
Consider B1, for which the Kd in assay [1] came to 230 µM; in assay [2], 689 µM; in assay [3] it was 161 µM.

B2: Pin1 WW domain 1-50 (peptide)
chain: MADEEKLPPGWEKRMSRSSGRVYYFNHITNASQWERPSGNSSSGGKNGQG
modifications: not fully specified; phospho-Ser163
Take B2: binding in assay [4] was put at a Kd of 385 µM.

Usually Kd stands for the concentration at which binding is half-saturated. A higher Kd goes with lower affinity.

For the origin of these results see PMC5298935 (2016).
